Experimental data from article doi:10.1101/2022.11.21.516512.
pKd: −log10 of the molar value.

Target: CTD-HAP40 complex bearing a C-terminal biotin tag (UniProt P23610)
Assay: BLI

UniProt P23610, sequence (P23610 whole entry, looked up, one chain of several): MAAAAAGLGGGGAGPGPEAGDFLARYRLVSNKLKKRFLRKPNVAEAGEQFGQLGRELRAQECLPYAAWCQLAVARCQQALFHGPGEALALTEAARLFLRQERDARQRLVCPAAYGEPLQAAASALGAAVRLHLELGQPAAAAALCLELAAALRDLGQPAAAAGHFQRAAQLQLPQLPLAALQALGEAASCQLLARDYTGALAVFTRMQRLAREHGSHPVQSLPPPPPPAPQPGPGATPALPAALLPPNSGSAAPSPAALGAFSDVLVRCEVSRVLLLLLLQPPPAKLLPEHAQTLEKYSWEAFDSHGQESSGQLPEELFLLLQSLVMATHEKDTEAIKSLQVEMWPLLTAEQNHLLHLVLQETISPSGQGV

pKd: 8.00
Substance: HTT N-terminal HEAT and bridge domain construct (NTD, aa. 97-2069) (domain or fragment)
